# Reference: IntAct's records for PubMed 30058071
# B1: SH3 and multiple ankyrin repeat domains protein 2 (Rattus norvegicus (Rat)), Q9QX74-7 (parent)
# chain: MPRSPTSSEDEMAQSFSDYSVGSESDSSKEETIYDTIRATTEKPGGVKMEDLQGNTLVIRVVIQDLQQTKCIRFNPDATVWVAKQRILCTLNQGLKDVLNYGLFQPASNGRDGKFLDEERLLREYPQPMGQGVPSLEFRYKKRVYKQSNLDEKQLARLHTKTNLKKFMDHTQHRSVEKLVKLLDRGLDPNFHDLETGETPLTLAAQLDGSMEVIKALRNGGAHLDFRSRDGMTALHKAARMRNQVALKTLLELGASPDYKDSYGLTPLYHTAIVGGDPYCCELLLHEHASVCCKDENGWHEIHQACRYGHVQHLEHLLFYGADMSAQNASGNTALHICALYNQDSCARVLLFRGGDKELKNYNSQTPFQVAIIAGNFELAEYIKNHKETDIVPFREAPAYSNRRRRPPNTLAAPRVLLRSNSDNNLNAGAPEWAVCSAATSHRSLSPQLLQQTPSKPDGATKSLGSYAPGPRSRSPSLNRLGGAGEDGKRPQPPHWHVGSPFTPGANKDSLSTFEYPGPRRKLYSAVPGRLFVAIKPYQPQVDGEIPLHRGDRVKVLSIGEGGFWEGSARGHIGWFPAECVEEVQCKPRDSQAETRADRSKKLFRHYTVGSYDSFDAASDCIIEDKTVVLQKKDNEGFGFVLRGAKADTPIEEFTPTPAFPALQYLESVDEGGVAWQAGLRTGDFLIEVNNENVVKVGHRQVVNMIRQGGNHLVLKVVTVTRNLDPDDTARKKAPPPPKRAPTTALTLRSKSMTAELEELDKPEEIVPASKPSRTAENVAIESRVATIKQRPTSRCFPAASDVNSVYERQGIAVMTPTVPGSPKGPFLGLPRGTMRRQKSIDSRIFLSGITEEERQFLAPPMLKFTRSLSMPDTSEDIPPPPQSVPPSPPPPSPTTYNCPRSPTPRVYGTIKPAFNQNPVAKVPPATRSDTVATMMREKGMFYRRELDRFSLDSEDVYSRSPAPQAAFRTKRGQMPENPYSEVGKIASKAVYVPAKPARRKGMLVKQSNVEDSPEKTCSIPIPTIIVKEPSTSSSGKSSQGSSMEIDPQATEPGQLRPDDSLTVSSPFAAAIAGAVRDREKRLEARRNSPAFLSTDLGDEDVGLGPPAPRMQPSKFPEEGGFGDEDETEQPLLPTPGAAPRELENHFLGGGEAGAQGEAGGPLSSTSKAKGPESGPAAALKSSSPASPENYVHPLTGRLLDPSSPLALALSARDRAMQESQQGHKGEAPKADLNKPLYIDTKMRPSVESGFPPVTRQNTRGPLRRQETENKYETDLSKDRRADDKKNMLINIVDTAQQKSAGLLMVHTVDIPVAGPPLEEEEDREDGDTKPDHSPSTVPEGVPKTEGALQISAAPEPAAAPGRTIVAAGSVEEAVILPFRIPPPPLASVDLDEDFLFTEPLPPPLEFANSFDIPDDRAASVPALADLVKQKKSDTPQPPSLNSSQPANSTDSKKPAGISNCLPSSFLPPPESFDAVTDSGIEEVDSRSSSDHHLETTSTISTVSSISTLSSEGGESMDTCTVYADGQAFVVDKPPVPPKPKMKPIVHKSNALYQDTLPEEDTDGFVIPPPAPPPPPGSAQAGVAKVIQPRTSKLWGDVTEVKSPILSGPKANVISELNSILQQMNRGKSVKPGEGLELPVGAKSANLAPRSPEVMSTVSGTRSTTVTFTVRPGTSQPITLQSRPPDYESRTSGPRRAPSPVVSPTELSKEILPTPPSAAAASPSPTLSDVFSLPSQSPAGDLFGLNPAGRSRSPSPSILQQPISNKPFTTKPVHLWTKPDVADWLESLNLGEHKETFMDNEIDGSHLPNLQKEDLIDLGVTRVGHRMNIERALKQLLDR
# B2: SH3 and multiple ankyrin repeat domains protein 3 (Homo sapiens), Q9BYB0-1 (parent)
# chain: MQLSRAAAAAAAAPAEPPEPLSPAPAPAPAPPGPLPRSAADGAPAGGKGGPGRRAESPGAPFPGASGPGPGPGAGMDGPGASAVVVRVGIPDLQQTKCLRLDPAAPVWAAKQRVLCALNHSLQDALNYGLFQPPSRGRAGKFLDEERLLQEYPPNLDTPLPYLEFRYKRRVYAQNLIDDKQFAKLHTKANLKKFMDYVQLHSTDKVARLLDKGLDPNFHDPDSGECPLSLAAQLDNATDLLKVLKNGGAHLDFRTRDGLTAVHCATRQRNAAALTTLLDLGASPDYKDSRGLTPLYHSALGGGDALCCELLLHDHAQLGITDENGWQEIHQACRFGHVQHLEHLLFYGADMGAQNASGNTALHICALYNQESCARVLLFRGANRDVRNYNSQTAFQVAIIAGNFELAEVIKTHKDSDVVPFRETPSYAKRRRLAGPSGLASPRPLQRSASDINLKGEAQPAASPGPSLRSLPHQLLLQRLQEEKDRDRDADQESNISGPLAGRAGQSKISPSGPGGPGPAPGPGPAPPAPPAPPPRGPKRKLYSAVPGRKFIAVKAHSPQGEGEIPLHRGEAVKVLSIGEGGFWEGTVKGRTGWFPADCVEEVQMRQHDTRPETREDRTKRLFRHYTVGSYDSLTSHSDYVIDDKVAVLQKRDHEGFGFVLRGAKAETPIEEFTPTPAFPALQYLESVDVEGVAWRAGLRTGDFLIEVNGVNVVKVGHKQVVALIRQGGNRLVMKVVSVTRKPEEDGARRRAPPPPKRAPSTTLTLRSKSMTAELEELASIRRRKGEKLDEMLAAAAEPTLRPDIADADSRAATVKQRPTSRRITPAEISSLFERQGLPGPEKLPGSLRKGIPRTKSVGEDEKLASLLEGRFPRSTSMQDPVREGRGIPPPPQTAPPPPPAPYYFDSGPPPAFSPPPPPGRAYDTVRSSFKPGLEARLGAGAAGLYEPGAALGPLPYPERQKRARSMIILQDSAPESGDAPRPPPAATPPERPKRRPRPPGPDSPYANLGAFSASLFAPSKPQRRKSPLVKQLQVEDAQERAALAVGSPGPGGGSFAREPSPTHRGPRPGGLDYGAGDGPGLAFGGPGPAKDRRLEERRRSTVFLSVGAIEGSAPGADLPSLQPSRSIDERLLGTGPTAGRDLLLPSPVSALKPLVSGPSLGPSGSTFIHPLTGKPLDPSSPLALALAARERALASQAPSRSPTPVHSPDADRPGPLFVDVQARDPERGSLASPAFSPRSPAWIPVPARREAEKVPREERKSPEDKKSMILSVLDTSLQRPAGLIVVHATSNGQEPSRLGGAEEERPGTPELAPAPMQSAAVAEPLPSPRAQPPGGTPADAGPGQGSSEEEPELVFAVNLPPAQLSSSDEETREELARIGLVPPPEEFANGVLLATPLAGPGPSPTTVPSPASGKPSSEPPPAPESAADSGVEEADTRSSSDPHLETTSTISTVSSMSTLSSESGELTDTHTSFADGHTFLLEKPPVPPKPKLKSPLGKGPVTFRDPLLKQSSDSELMAQQHHAASAGLASAAGPARPRYLFQRRSKLWGDPVESRGLPGPEDDKPTVISELSSRLQQLNKDTRSLGEEPVGGLGSLLDPAKKSPIAAARLFSSLGELSSISAQRSPGGPGGGASYSVRPSGRYPVARRAPSPVKPASLERVEGLGAGAGGAGRPFGLTPPTILKSSSLSIPHEPKEVRFVVRSVSARSRSPSPSPLPSPASGPGPGAPGPRRPFQQKPLQLWSKFDVGDWLESIHLGEHRDRFEDHEIEGAHLPALTKDDFVELGVTRVGHRMNIERALRQLDGS
# Variants of: B1
# Settings: with cac1d_rat Cacna1d
row,effect of a mutation on the interaction,Variant
1,with no effect,S558D
2,decreasing interaction strength,S558N

# Variants of: B2
# Settings: with cac1d_human CACNA1D
row,effect of a mutation on the interaction,Variant
1,with no effect,K555Y
